Assay results taken from patent publication US20100272723A1 (Xencor, published 2010).
Where a chain is given by its changes, count along the chain named. Names and notes keep the numbering of the source.

T1: human CD19 (human, UniProt P15391 20-556)
T1 construct: also called B-cell surface antigen B4; B-cell antigen CD19
T1 sequence: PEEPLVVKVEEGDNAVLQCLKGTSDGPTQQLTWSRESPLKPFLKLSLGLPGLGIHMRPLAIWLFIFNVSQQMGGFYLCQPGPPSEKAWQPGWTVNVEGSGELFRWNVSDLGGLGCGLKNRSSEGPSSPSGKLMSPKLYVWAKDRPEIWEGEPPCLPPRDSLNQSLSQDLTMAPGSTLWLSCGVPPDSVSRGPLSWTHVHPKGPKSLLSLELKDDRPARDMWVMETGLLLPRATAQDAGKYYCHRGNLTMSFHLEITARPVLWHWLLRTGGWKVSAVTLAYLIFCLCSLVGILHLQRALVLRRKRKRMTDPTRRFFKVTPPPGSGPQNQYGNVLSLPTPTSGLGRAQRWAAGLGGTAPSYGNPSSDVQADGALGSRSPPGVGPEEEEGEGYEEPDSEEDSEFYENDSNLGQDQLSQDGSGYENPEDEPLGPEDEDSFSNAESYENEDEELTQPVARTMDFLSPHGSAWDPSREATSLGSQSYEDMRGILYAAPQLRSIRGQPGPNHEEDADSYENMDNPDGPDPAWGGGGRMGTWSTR

B1: H1 / L1.92 (antibody, V domains shown)
VH: EVQLVESGGGLVKPGGSLKLSCAASGYTFTSYVMHWVRQAPGKGLEWIGYINPYNDGTKYNEKFQGRVTISSDKSISTAYMELSSLRSEDTAMYYCARGTYYYGSRVFDYWGQGTLVTVSS
VL: DIVMTQSPATLSLSPGERATLSCRSSKSLLNSNGNTYLYWFQQKPGQSPQLLIYRMSNLLSGVPDRFSGSGSGTEFTLTISSLEPEDFAVYYCMQHLEYPFTFGAGTKLEIK
notes: vs H1L1 (Kabat): VL A55L; also called 4G7 H1_L1.92
B2: H1 / L1.96 (antibody, V domains shown)
VH: B1 VH
VL: B1 VL with L60N
notes: vs H1L1 (Kabat): VL A55N; also called 4G7 H1_L1.96
B3: H1.52 / L1.161 (antibody, V domains shown)
VH: B1 VH with S105T
VL: B1 VL with L30Q, S32V, G34S, L60N, F101I
notes: vs H1L1 (Kabat): VH S100cT; VL L27cQ/S27eV/G29S/A55N/F96I; also called 4G7 H1.52_L1.161
B4: H1.52 / L1.162 (antibody, V domains shown)
VH: B1 VH with S105T
VL: B1 VL with L30Q, S32A, G34A, L60N, F101I
notes: vs H1L1 (Kabat): VH S100cT; VL L27cQ/S27eA/G29A/A55N/F96I; also called 4G7 H1.52_L1.162
B5: H1.52 / L1.163 (antibody, V domains shown)
VH: B1 VH with S105T
VL: B1 VL with L30Q, S32A, G34S, L60N, F101I
notes: vs H1L1 (Kabat): VH S100cT; VL L27cQ/S27eA/G29S/A55N/F96I; also called 4G7 H1.52_L1.163
B6: H1.191 / L1.162 (antibody, V domains shown)
VH: B1 VH with K59E, S105T
VL: B1 VL with L30Q, S32A, G34A, L60N, F101I
notes: vs H1L1 (Kabat): VH K58E/S100cT; VL L27cQ/S27eA/G29A/A55N/F96I; also called 4G7 H1.191_L1.162
B7: H1.191 / L1.163 (antibody, V domains shown)
VH: B1 VH with K59E, S105T
VL: B1 VL with L30Q, S32A, G34S, L60N, F101I
notes: vs H1L1 (Kabat): VH K58E/S100cT; VL L27cQ/S27eA/G29S/A55N/F96I; also called 4G7 H1.191_L1.163
B8: H1.201 / L1.162 (antibody, V domains shown)
VH: B1 VH with D56S, S105T
VL: B1 VL with L30Q, S32A, G34A, L60N, F101I
notes: vs H1L1 (Kabat): VH D55S/S100cT; VL L27cQ/S27eA/G29A/A55N/F96I; also called 4G7 H1.201_L1.162
B9: H1.201 / L1.163 (antibody, V domains shown)
VH: B1 VH with D56S, S105T
VL: B1 VL with L30Q, S32A, G34S, L60N, F101I
notes: vs H1L1 (Kabat): VH D55S/S100cT; VL L27cQ/S27eA/G29S/A55N/F96I; also called 4G7 H1.201_L1.163
B10: H1.201 / L1.164 (antibody, V domains shown)
VH: B1 VH with D56S, S105T
VL: B1 VL with L30Q, S32A, L60N, F101I
notes: vs H1L1 (Kabat): VH D55S/S100cT; VL L27cQ/S27eA/A55N/F96I; also called 4G7 H1.201_L1.164
B11: H1.202 / L1.162 (antibody, V domains shown)
VH: B1 VH with D56E, S105T
VL: B1 VL with L30Q, S32A, G34A, L60N, F101I
notes: vs H1L1 (Kabat): VH D55E/S100cT; VL L27cQ/S27eA/G29A/A55N/F96I; also called 4G7 H1.202_L1.162
B12: H1.202 / L1.163 (antibody, V domains shown)
VH: B1 VH with D56E, S105T
VL: B1 VL with L30Q, S32A, G34S, L60N, F101I
notes: vs H1L1 (Kabat): VH D55E/S100cT; VL L27cQ/S27eA/G29S/A55N/F96I; also called 4G7 H1.202_L1.163
B13: H1.203 / L1.162 (antibody, V domains shown)
VH: B1 VH with D56S, K59E, S105T
VL: B1 VL with L30Q, S32A, G34A, L60N, F101I
notes: vs H1L1 (Kabat): VH D55S/K58E/S100cT; VL L27cQ/S27eA/G29A/A55N/F96I; also called 4G7 H1.203_L1.162
B14: H1.203 / L1.163 (antibody, V domains shown)
VH: B1 VH with D56S, K59E, S105T
VL: B1 VL with L30Q, S32A, G34S, L60N, F101I
notes: vs H1L1 (Kabat): VH D55S/K58E/S100cT; VL L27cQ/S27eA/G29S/A55N/F96I; also called 4G7 H1.203_L1.163
B15: H1.203 / L1.164 (antibody, V domains shown)
VH: B1 VH with D56S, K59E, S105T
VL: B1 VL with L30Q, S32A, L60N, F101I
notes: vs H1L1 (Kabat): VH D55S/K58E/S100cT; VL L27cQ/S27eA/A55N/F96I; also called 4G7 H1.203_L1.164
B16: H1.204 / L1.161 (antibody, V domains shown)
VH: B1 VH with D56E, K59E, S105T
VL: B1 VL with L30Q, S32V, G34S, L60N, F101I
notes: vs H1L1 (Kabat): VH D55E/K58E/S100cT; VL L27cQ/S27eV/G29S/A55N/F96I; also called 4G7 H1.204_L1.161
B17: H1.204 / L1.162 (antibody, V domains shown)
VH: B1 VH with D56E, K59E, S105T
VL: B1 VL with L30Q, S32A, G34A, L60N, F101I
notes: vs H1L1 (Kabat): VH D55E/K58E/S100cT; VL L27cQ/S27eA/G29A/A55N/F96I; also called 4G7 H1.204_L1.162
B18: H1.204 / L1.163 (antibody, V domains shown)
VH: B1 VH with D56E, K59E, S105T
VL: B1 VL with L30Q, S32A, G34S, L60N, F101I
notes: vs H1L1 (Kabat): VH D55E/K58E/S100cT; VL L27cQ/S27eA/G29S/A55N/F96I; also called 4G7 H1.204_L1.163
B19: H1L2 (antibody, V domains shown)
VH: B1 VH
VL: B1 VL with A9S, T10S, L13A, P15V, E17D, A19V, L21I, L60A, E84Q, F88V
notes: also called 4G7 H1L2
B20: H2L1 (antibody, V domains shown)
VH: QVQLQESGSGLVKPGGSLRLSCAASGYTFTSYVMHWVRQAPGKGLEWMGYINPYNDGTKYNESLKSRVTISSDKSISTAYMELSSLRAEDTAVYYCARGTYYYGSRVFDYWGQGTLVTVSS
VL: B1 VL with L60A
notes: also called 4G7 H2L1
B21: H3L1 (antibody, V domains shown)
VH: B1 VH with K13Q, G16R, K19R, A40M, I48M, S71T, I76T, S85R, E89D, M93V
VL: B1 VL with L60A
notes: also called 4G7 H3L1
B22: H1L0 (antibody, V domains shown)
VH: B1 VH
VL: DIVMTQAAPSIPVTPGESVSISCRSSKSLLNSNGNTYLYWFLQRPGQSPQLLIYRMSNLASGVPDRFSGSGSGTAFTLRISRVEAEDVGVYYCMQHLEYPFTFGAGTKLELK
notes: also called 4G7 H1L0
B23: H2L0 (antibody, V domains shown)
VH: B20 VH
VL: B22 VL
notes: also called 4G7 H2L0
B24: H3L0 (antibody, V domains shown)
VH: B1 VH with K13Q, G16R, K19R, A40M, I48M, S71T, I76T, S85R, E89D, M93V
VL: B22 VL
notes: also called 4G7 H3L0
B25: H0L1 (antibody, V domains shown)
VH: EVQLQQSGPELIKPGASVKMSCKASGYTFTSYVMHWVKQKPGQGLEWIGYINPYNDGTKYNEKFKGKATLTSDKSSSTAYMELSSLTSEDSAVYYCARGTYYYGSRVFDYWGQGTTLTVSS
VL: B1 VL with L60A
notes: also called 4G7 H0L1
B26: H0L2 (antibody, V domains shown)
VH: B25 VH
VL: B1 VL with A9S, T10S, L13A, P15V, E17D, A19V, L21I, L60A, E84Q, F88V
notes: also called 4G7 H0L2
B27: H0L3 (antibody, V domains shown)
VH: B25 VH
VL: B1 VL with L13V, L21I, Q42L, L60A, E75D, S82R, L83V, P85A, F88V, A89G
notes: also called 4G7 H0L3
B28: H2L2 (antibody, V domains shown)
VH: B20 VH
VL: B1 VL with A9S, T10S, L13A, P15V, E17D, A19V, L21I, L60A, E84Q, F88V
notes: also called 4G7 H2L2
B29: H1L3 (antibody, V domains shown)
VH: B1 VH
VL: B1 VL with L13V, L21I, Q42L, L60A, E75D, S82R, L83V, P85A, F88V, A89G
notes: also called 4G7 H1L3
B30: H3L2 (antibody, V domains shown)
VH: B1 VH with K13Q, G16R, K19R, A40M, I48M, S71T, I76T, S85R, E89D, M93V
VL: B1 VL with A9S, T10S, L13A, P15V, E17D, A19V, L21I, L60A, E84Q, F88V
notes: also called 4G7 H3L2
B31: H2L3 (antibody, V domains shown)
VH: B20 VH
VL: B1 VL with L13V, L21I, Q42L, L60A, E75D, S82R, L83V, P85A, F88V, A89G
notes: also called 4G7 H2L3

Target: T1, human CD19
Assay: binding affinity relative to the parent H1L1 mAb (Example 5); assay and format not named on the sheet

| Binder | Fold change binding [fold] |
| --- | --- |
| B1 | 1.54 |
| B2 | 1.58 |
| B3 | 3.18 |
| B4 | 5.57 |
| B5 | 3.74 |
| B6 | 3.35 |
| B7 | 5.32 |
| B8 | 3.97 |
| B9 | 3.87 |
| B10 | 4.41 |
| B11 | 4.32 |
| B12 | 3.57 |
| B13 | 3.25 |
| B14 | 3.2 |
| B15 | 5.58 |
| B16 | 3.27 |
| B17 | 4.07 |
| B18 | 4.73 |

Target: T1, human CD19
Assay: DELFIA competition on Raji cells: unlabeled antibody competes with Eu-labeled anti-CD19 for surface CD19 [upper panel]

| Binder | binding result | IC50 (read off the curve) [nM] |
| --- | --- | --- |
| B19 | binds | – |
| B20 | binds | – |
| B21 | binds | – |
| B22 | – | ~20 |
| B23 | binds | – |
| B24 | binds | – |
| B25 | – | ~3 |
| B26 | – | ~2 |
| B27 | – | ~3 |
| B28 | binds | – |

Target: T1, human CD19
Assay: DELFIA competition on Raji cells: unlabeled antibody competes with Eu-labeled anti-CD19 for surface CD19 [lower panel]

| Binder | IC50 (read off the curve) [nM] | binding result |
| --- | --- | --- |
| B29 | ~20 | – |
| B30 | ~10 | – |
| B31 | – | binds |
